RU bound and in vitro ID50 in the B9 proliferation assay data for 3 substances are collected here from patent US20050096268A1.

Assay [1] concerns the target human IL-13 (human) (UniProt P35225). Description: Biacore SPR; IL-11R-Ig immobilized, 100 ng/ml human IL-13 injected. (Surface plasmon resonance follows binding to a sensor surface in real time, without labels.)
Assay [2] shares this target. Description: Biacore SPR; human IgG1 immobilized, 100 ng/ml human IL-13 injected.
A further assay concerns the target murine IL-13 (murine) (UniProt P20109). Description: cell-based or functional assay.
Chain of UniProt P20109 (P20109 21-131 limits assumed): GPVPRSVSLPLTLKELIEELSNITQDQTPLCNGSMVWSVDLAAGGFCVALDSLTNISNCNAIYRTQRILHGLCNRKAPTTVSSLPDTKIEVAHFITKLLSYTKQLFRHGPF

Chain of UniProt P35225 (P35225 35-146 limits assumed): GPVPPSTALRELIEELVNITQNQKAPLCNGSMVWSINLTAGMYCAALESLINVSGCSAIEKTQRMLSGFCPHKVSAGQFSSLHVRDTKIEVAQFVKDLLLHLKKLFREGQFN

Take IL-11R-Ig (Fc fusion): the RU bound with human IL-13 (human) [1] stood at 3.7 RU.
For the substance human IgG1 (IgG control) (antibody), in the assay with human IL-13 (human) [2], the RU bound is 5.4 RU.
Take “soluble IL-13 receptor α2-Fc fusion protein (sIL-13Rα2-Fc) (from UniProt O88786 22-331)”: the in vitro ID50 in the B9 proliferation assay in the assay with murine IL-13 (murine) was 10 ng/mL.
